In paper PMC6355189, “A structural model of the immune checkpoint CD160–HVEM complex derived from HDX-mass spectrometry and molecular modeling” (Oncotarget, 2019):
Ends that are not written are not given here.

T1: Human HVEM-Fc protein (human, UniProt Q92956 39-202)
T1 construct: herpes virus entry mediator (HVEM), human, as Fc fusion, bought; Detected by goat anti-human IgG(H+L)-HRP; source: bought: ACROBiosystems, USA (#HVM-H5258)
T1 sequence (looked up): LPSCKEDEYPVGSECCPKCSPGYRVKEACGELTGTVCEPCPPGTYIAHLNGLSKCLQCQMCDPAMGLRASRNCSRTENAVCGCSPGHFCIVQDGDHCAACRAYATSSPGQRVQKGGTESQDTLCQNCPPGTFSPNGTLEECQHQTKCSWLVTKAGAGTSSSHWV

T2: Recombinant human protein HVEM with His Tag (human, UniProt Q92956 39-202)
T2 construct: herpes virus entry mediator (HVEM), human, recombinant, bought; also called HVEM protein; herpes virus entry mediator; source: bought: Sino Biological Inc., China (#10334-H08H)
T2 sequence (looked up): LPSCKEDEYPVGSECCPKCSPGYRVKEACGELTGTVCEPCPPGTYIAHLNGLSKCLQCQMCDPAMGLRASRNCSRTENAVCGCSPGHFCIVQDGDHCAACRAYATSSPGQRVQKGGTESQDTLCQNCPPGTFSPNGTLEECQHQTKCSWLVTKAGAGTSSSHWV


Key:
Human HVEM-Fc protein = target: T1, Human HVEM-Fc protein; experiment: ELISA; biotinylated peptides or biotinylated CD160 (1 μg/ml) on a streptavidin microplate; HVEM-Fc at 20, 10 and 5 μg/ml, 1 hour at 25°C; PBS-T (5 mM Na2HPO4, 150 mM NaCl with addition of 0.3 M NaCl and 0.05% Tween-20, pH 7.4); detection by goat antihuman IgG(H+L)–HRP; conditions: both partners purified
[1] = target: T2, Recombinant human protein HVEM with His …; experiment: microcolumn affinity test with mass spectrometry; HVEM protein immobilised in a microcolumn; peptide applied; supernatant, last wash and elution analysed by mass spectrometry; conditions: both partners purified

binding result (Human HVEM-Fc protein)	binding result [1]	Binder
binds	–	GVGEISSQLMFTISQVTPLH (also: elongated by five glycine residues and biotin, end not given here, CD160, human, residues 61-80; source: synthetic peptide) [CD160(61–80) peptide elongated by five glycine residues and biotin]
–	binds	Ac-GVGEISSQLMFTISQVTPLH-NH2 (CD160, human, residues 61-80; source: synthetic peptide) [CD160 (61–80)]
